Target: XMAP-Ct, C-terminal coiled-coil fragment of XMAP215 (Xenopus) (UniProt Q9PT63)
Assay: SPR
Conditions: domain or fragment

Chain of XMAP-Ct, C-terminal coiled-coil fragment of XMAP215 (Xenopus) (Q9PT63 2002-2065): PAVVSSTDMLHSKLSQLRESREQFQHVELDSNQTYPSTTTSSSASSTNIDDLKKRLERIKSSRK
Chain of TD5, TACC domain fragment of XTACC3 with a deletion of helix α1 (Q9PTG8 whole entry, stated change not applied, the tested form may be a part): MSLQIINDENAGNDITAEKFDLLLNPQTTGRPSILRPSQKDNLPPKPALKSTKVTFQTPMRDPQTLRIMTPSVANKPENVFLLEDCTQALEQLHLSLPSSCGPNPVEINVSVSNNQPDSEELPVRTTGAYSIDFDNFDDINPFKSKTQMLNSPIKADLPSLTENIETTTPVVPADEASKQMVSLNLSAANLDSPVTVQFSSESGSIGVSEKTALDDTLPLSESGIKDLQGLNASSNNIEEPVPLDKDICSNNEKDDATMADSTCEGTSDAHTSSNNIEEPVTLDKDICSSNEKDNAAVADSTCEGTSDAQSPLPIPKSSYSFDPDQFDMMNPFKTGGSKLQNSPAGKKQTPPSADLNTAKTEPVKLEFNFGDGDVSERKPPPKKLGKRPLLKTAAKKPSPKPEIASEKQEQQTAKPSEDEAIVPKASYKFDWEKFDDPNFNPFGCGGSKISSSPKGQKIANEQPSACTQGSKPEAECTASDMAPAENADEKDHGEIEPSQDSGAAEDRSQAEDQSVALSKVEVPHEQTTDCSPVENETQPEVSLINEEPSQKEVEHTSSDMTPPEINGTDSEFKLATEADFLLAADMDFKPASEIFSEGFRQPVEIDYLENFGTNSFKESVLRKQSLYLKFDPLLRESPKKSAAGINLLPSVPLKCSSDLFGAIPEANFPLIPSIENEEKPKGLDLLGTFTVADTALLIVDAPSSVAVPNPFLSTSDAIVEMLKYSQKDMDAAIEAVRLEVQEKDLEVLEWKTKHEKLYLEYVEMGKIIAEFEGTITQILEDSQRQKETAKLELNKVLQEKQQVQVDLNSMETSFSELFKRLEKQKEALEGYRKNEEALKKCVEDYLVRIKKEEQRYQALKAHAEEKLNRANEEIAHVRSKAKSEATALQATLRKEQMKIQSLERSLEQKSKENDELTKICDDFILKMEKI

“TD5, TACC domain fragment of XTACC3 with a deletion of helix α1” gave a Kd of 4.3 µM.

From publication PMC4200520
